pKd: −log10 of the molar value.
Molecular target: biotinylated human neonatal Fc receptor (FcRn) (human) (UniProt P55899)
Assay: BLI

Row | Substance | pKd
1 | AlbuCORE_4 scaffold (split human serum albumin, split site 441-442) (complex) | 6.01
2 | AlbuCORE_6 scaffold (split human serum albumin, deletion of residue 84) (complex) | 5.80
3 | AlbuCORE_7 scaffold (split human serum albumin, split site 171-172) (complex) | 5.78
4 | AlbuCORE_9 scaffold (split human serum albumin, split site 281-282) (complex) | 5.90

These reach a higher pKd. Values come first.

Row | pKd | Substance
5 | 6.72 | AlbuCORE_1 scaffold (split human serum albumin, split site 339-340) (complex)
6 | 6.24 | AlbuCORE_2 scaffold (split human serum albumin, split site 300-301) (complex)
7 | 6.12 | AlbuCORE_3 scaffold (split human serum albumin, split site 364-365) (complex)
